B1: Homer protein homolog 1 (Rattus norvegicus (Rat)), Q9Z214-2 (parent)
chain: MGEQPIFSTRAHVFQIDPNTKKNWVPTSKHAVTVSYFYDSTRNVYRIISLDGSKAIINSTITPNMTFTKTSQKFGQWADSRANTVYGLGFSSEHHLSKFAEKFQEFKEAARLAKEKSQEKMELTSTPSQESAGGDLQSPLTPESINGTDDERTPDVTQNSEPRAEPAQNALPFSHSSAISKHWEAELATLKGNNAKLTAALLESTANVKQWKQQLAAYQEEAERLHKRVTELECVSSQANAVHSHKTELSQTVQELEETLKVKEEEIERLKQEIDNARELQEQRDSLTQKLQEVEIRNKDLEGQLSELEQRLEKSQSEQDAFRSNLKTLLEILDGKIFELTELRDNLAKLLECS

Variants of: B1
Details: with shan1_rat Shank1, Q9WV48
shan1_rat Shank1, Q9WV48, sequence (Q9WV48 whole entry): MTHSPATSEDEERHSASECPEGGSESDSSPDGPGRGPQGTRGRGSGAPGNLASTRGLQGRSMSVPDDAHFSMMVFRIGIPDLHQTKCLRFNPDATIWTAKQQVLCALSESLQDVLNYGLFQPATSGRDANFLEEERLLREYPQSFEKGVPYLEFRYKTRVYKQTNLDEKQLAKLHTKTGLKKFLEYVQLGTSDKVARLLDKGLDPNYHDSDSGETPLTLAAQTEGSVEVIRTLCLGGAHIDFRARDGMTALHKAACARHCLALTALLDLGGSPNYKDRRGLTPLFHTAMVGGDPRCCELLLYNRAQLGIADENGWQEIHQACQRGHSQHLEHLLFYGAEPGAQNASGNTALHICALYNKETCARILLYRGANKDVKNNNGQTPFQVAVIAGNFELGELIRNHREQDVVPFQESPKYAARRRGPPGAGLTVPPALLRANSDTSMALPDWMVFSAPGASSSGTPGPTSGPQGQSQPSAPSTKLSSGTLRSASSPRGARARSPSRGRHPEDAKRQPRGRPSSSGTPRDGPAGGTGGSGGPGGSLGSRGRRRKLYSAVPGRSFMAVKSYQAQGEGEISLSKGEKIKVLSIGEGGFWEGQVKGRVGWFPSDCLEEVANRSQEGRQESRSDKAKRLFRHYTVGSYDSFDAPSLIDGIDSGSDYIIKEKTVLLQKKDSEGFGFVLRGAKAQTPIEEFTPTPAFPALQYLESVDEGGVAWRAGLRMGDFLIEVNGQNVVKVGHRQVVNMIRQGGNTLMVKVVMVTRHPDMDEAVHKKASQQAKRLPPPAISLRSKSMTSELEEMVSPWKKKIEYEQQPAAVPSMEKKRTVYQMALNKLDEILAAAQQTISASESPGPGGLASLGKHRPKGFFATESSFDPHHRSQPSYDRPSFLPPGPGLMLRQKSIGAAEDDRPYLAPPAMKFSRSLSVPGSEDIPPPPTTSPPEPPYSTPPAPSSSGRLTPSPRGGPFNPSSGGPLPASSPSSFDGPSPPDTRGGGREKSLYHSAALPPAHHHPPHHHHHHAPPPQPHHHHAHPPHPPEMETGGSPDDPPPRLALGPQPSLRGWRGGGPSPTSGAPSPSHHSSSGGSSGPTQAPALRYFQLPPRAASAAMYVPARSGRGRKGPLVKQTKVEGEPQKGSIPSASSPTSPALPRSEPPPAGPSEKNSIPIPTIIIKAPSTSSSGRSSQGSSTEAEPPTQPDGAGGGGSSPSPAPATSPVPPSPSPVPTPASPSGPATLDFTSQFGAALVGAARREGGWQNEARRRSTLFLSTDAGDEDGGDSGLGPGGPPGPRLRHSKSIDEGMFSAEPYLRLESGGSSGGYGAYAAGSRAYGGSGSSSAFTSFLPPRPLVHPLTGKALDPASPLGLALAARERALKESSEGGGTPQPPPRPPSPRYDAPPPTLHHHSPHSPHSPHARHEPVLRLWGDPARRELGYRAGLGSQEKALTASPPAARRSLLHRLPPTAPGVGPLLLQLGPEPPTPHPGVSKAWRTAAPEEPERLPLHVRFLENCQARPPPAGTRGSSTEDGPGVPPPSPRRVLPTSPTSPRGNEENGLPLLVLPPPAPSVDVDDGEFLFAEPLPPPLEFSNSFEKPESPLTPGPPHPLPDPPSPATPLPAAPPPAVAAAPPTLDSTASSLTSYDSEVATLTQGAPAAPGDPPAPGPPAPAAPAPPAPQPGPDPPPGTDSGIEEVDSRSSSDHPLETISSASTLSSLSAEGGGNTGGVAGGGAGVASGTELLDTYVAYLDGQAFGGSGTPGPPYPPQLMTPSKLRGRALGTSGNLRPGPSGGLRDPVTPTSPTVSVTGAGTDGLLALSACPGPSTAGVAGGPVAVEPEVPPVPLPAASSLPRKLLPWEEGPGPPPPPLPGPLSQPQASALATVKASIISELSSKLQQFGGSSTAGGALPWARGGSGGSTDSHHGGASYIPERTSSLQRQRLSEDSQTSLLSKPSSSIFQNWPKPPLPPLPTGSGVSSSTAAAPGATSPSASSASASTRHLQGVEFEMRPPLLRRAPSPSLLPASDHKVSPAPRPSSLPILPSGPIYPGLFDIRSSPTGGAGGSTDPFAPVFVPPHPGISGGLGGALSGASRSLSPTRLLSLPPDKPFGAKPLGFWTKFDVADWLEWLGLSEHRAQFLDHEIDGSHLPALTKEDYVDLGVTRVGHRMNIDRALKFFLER

| effect of a mutation on the interaction | Variant |
| --- | --- |
| decreasing interaction | MGEQPIFSTRAHVFQIDPNTKKNAVPTSKHAVTVSYFYDSTRNVYRIISLDGSKAIINSTITPNMTFTKTSQKFGQWADSRANTVYGLGFSSEHHLSKFAEKFQEFKEAARLAKEKSQEKMELTSTPSQESAGGDLQSPLTPESINGTDDERTPDVTQNSEPRAEPAQNALPFSHSSAISKHWEAELATLKGNNAKLTAALLESTANVKQWKQQLAAYQEEAERLHKRVTELECVSSQANAVHSHKTELSQTVQELEETLKVKEEEIERLKQEIDNARELQEQRDSLTQKLQEVEIRNKDLEGQLSELEQRLEKSQSEQDAFRSNLKTLLEILDGKIFELTELRDNLAKLLECS [W24A] |

Reference: IntAct's records for PubMed 19345194
